First the molecules themselves.
B1: S188A (protein)
chain: MQLRNPELHLGCALALRFLALVSWDIPGARALDNGLARTPTMGWLHWERFMCNLDCQEEPDSCISEKLFMEMAELMVSEGWKDAGYEYLCIDDCWMAPQRDSEGRLQADPQRFPHGIRQLANYVHSKGLKLGIYADVGNKTCAGFPGSFGYYDIDAQTFADWGVDLLKFDGCYCDSLENLADGYKHMALALNRTGRSIVYSCEWPLYMWPFQKPNYTEIRQYCNHWRNFADIDDSWKSIKSILDWTSFNQERIVDVAGPGGWNDPDMLVIGNFGLSWNQQVTQMALWAIMAAPLFMSNDLRHISPQAKALLQDKDVIAINQDPLGKQGYQLRQGDNFEVWERPLSGLAWAVAMINRQEIGGPRSYTIAVASLGKGVACNPACFITQLLPVKRKLGFYEWTSRLRSHINPTGTVLLQLENTMQMSLKDLL
B2: S188P (protein)
chain: B1 chain with A188P
B3: A190S (protein)
chain: B1 chain with A188S, A190S
B4: L189V (protein)
chain: B1 chain with A188S, L189V
B5: L191M (protein)
chain: B1 chain with A188S, L191M
B6: S188F (protein)
chain: B1 chain with A188F
B7: N192H (protein)
chain: B1 chain with A188S, N192H
B8: S188C (protein)
chain: B1 chain with A188C
B9: L189S (protein)
chain: B1 chain with A188S, L189S
B10: S188T (protein)
chain: B1 chain with A188T
B11: A190T (protein)
chain: B1 chain with A188S, A190T
B12: A190G (protein)
chain: B1 chain with A188S, A190G
B13: L191V (protein)
chain: B1 chain with A188S, L191V
B14: A190D (protein)
chain: B1 chain with A188S, A190D
B15: A190V (protein)
chain: B1 chain with A188S, A190V
B16: N192D (protein)
chain: B1 chain with A188S, N192D
B17: S188Y (protein)
chain: B1 chain with A188Y

Substitutions are numbered along the chain they refer to. Numbers in names are those of the source.

The first assay deals with mutant form of α-Gal A expressed in HEK-293 cells. The experiment in a line: HEK assay (GLP HEK / Migalastat Amenability Assay): α-Gal A activity in lysates of transiently transfected HEK-293 cells incubated with or without 10 μM migalastat. It is filed as cell-based, human. To be noted: 10 μM migalastat versus baseline. Summed up:
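Activity reported as 4-MU released (nmol/mg/hr), mean±SEM, from lysates of transiently transfected HEK-293 cells expressing mutant α-Gal A, cultured with or without 10 μM migalastat.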
On to B1, for which the “Absolute increase (% WT)” value worked out at 25.7 % WT.
Take B2: the “Absolute increase (% WT)” value is reported as 3.2 % WT.
In the case of B3, the “Absolute increase (% WT)” value is 26.1 % WT.
On the same count and under the same terms, the result for B4 reads 20.2 % WT.
Regarding B5, the “Absolute increase (% WT)” value was 41.7 % WT.
Still for that read-out and setting: under B6 stands 36.4 % WT; under B7, 16.4 % WT.
On the same count and under the same terms, the result for B8 reads 18.5 % WT; that for B9, 20.1 % WT; that for B10, 24.0 % WT.
Consider B11, for which the “Absolute increase (% WT)” value stood at 30.7 % WT.
B12: the “Absolute increase (% WT)” value is 27.4 % WT.
The same measure, in the same setting: the result for B13 reads 39.1 % WT.
The same measure, in the same setting: the result for B14 reads 26.9 % WT; that for B15, 41.2 % WT; that for B16, 55.6 % WT.
In the case of B17, the “Absolute increase (% WT)” value is 31.5 % WT.

Still in this assay, the particulars now being: 10 μM migalastat α-Gal A activity relative to baseline.
In the case of B1, the Relative increase was determined as 1.4.
Same read-out and setting: the result for B3 reads 1.3.
Molecule B4 showed a Relative increase of 1.3.
In turn, B5 yielded a Relative increase of 1.8.
The molecule B6 showed a Relative increase of 2.8.
The same measure, in the same setting: under B7 stands 2.8; under B8, 1.4; under B9, 1.3.
On the same count and under the same terms, under B10 stands 1.5.
Still for that read-out and setting: the result for B11 reads 2.1; that for B12, 1.4.
On to B13, for which the Relative increase came to 1.6.
On the same count and under the same terms, under B14 stands 2.2; under B15, 2.2; under B16, 3.2.
The same measure, in the same setting: under B17 stands 2.0.

Still in this assay, the particulars now being: 10 μM migalastat, 5 days; percentage of baseline wild-type α-Gal A activity; mean ± SEM.
For the molecule B1, the “10 μM migalastat α-Gal A activity (% WT)” value amounted to 86.3 ± 4.9 % WT.
On the same count and under the same terms, under B2 stands 3.2 ± 0.2 % WT.
Take B3: the “10 μM migalastat α-Gal A activity (% WT)” value was found to be 110.6 ± 5.5 % WT.
Still for that read-out and setting: under B4 stands 100.1 ± 3.9 % WT; under B5, 100.2 ± 9.8 % WT.
In the case of B6, the “10 μM migalastat α-Gal A activity (% WT)” value turned out to be 57.1 ± 2.8 % WT.
On the same count and under the same terms, under B7 stands 24.9 ± 3 % WT.
The same measure, in the same setting: the result for B8 reads 68.6 ± 4.3 % WT; that for B9, 92.7 ± 3.2 % WT; that for B10, 69.5 ± 4.5 % WT.
On the same count and under the same terms, the result for B11 reads 57 ± 1.9 % WT.
On to B12, for which the “10 μM migalastat α-Gal A activity (% WT)” value turned out to be 97.9 ± 9.8 % WT.
Still for that read-out and setting: the result for B13 reads 110.2 ± 7.9 % WT; that for B14, 49 ± 3.4 % WT; that for B15, 77.9 ± 9.5 % WT.
On the same count and under the same terms, the result for B16 reads 81.5 ± 6.7 % WT; that for B17, 64.1 ± 3.5 % WT.

The same assay, now with this note: absence of migalastat; mean activity below the limit of detection (<142 nmol/mg/hr).
On to B2, for which the “Baseline α-Gal A activity (nmol/mg/hr)” value is on record as “BLD (“BLD” indicates that the mean α-Gal A activity was below the limit of detection (<142 nmol/mg/hr))”.

The assay is the same for the next values; noted with them: absence of migalastat; percentage of baseline wild-type α-Gal A activity; mean ± SEM.
For B1, the “Baseline α-Gal A activity (% WT)” value worked out at 60.6 ± 4 % WT.
In the case of B3, the “Baseline α-Gal A activity (% WT)” value amounted to 84.5 ± 3.2 % WT.
On the same count and under the same terms, the result for B4 reads 79.9 ± 5.1 % WT; that for B5, 58.4 ± 6.6 % WT.
On to B6, for which the “Baseline α-Gal A activity (% WT)” value was found to be 20.7 ± 2 % WT.
On the same count and under the same terms, the result for B7 reads 8.6 ± 1.1 % WT; that for B8, 50.1 ± 3.7 % WT; that for B9, 72.6 ± 3.1 % WT.
Regarding B10, the “Baseline α-Gal A activity (% WT)” value is reported as 45.4 ± 2.5 % WT.
On the same count and under the same terms, the result for B11 reads 26.3 ± 2 % WT.
As for B12, the “Baseline α-Gal A activity (% WT)” value stood at 70.5 ± 7.3 % WT.
Same read-out and setting: the result for B13 reads 71.1 ± 4.7 % WT; that for B14, 22.1 ± 1 % WT.
With B15, the “Baseline α-Gal A activity (% WT)” value amounted to 36.8 ± 5.1 % WT.
As for B16, the “Baseline α-Gal A activity (% WT)” value turned out to be 25.9 ± 3 % WT.
In the case of B17, the “Baseline α-Gal A activity (% WT)” value was 32.6 ± 2.6 % WT.

Still in this assay, the particulars now being: lysates of HEK-293 cells transfected with the mutant form, incubated 5 days in the absence of migalastat; mean ± SEM.
For B1, the “Baseline α-Gal A activity” value amounted to 22589 ± 1833 nmol/mg/h.
For the molecule B3, the “Baseline α-Gal A activity” value was 27316 ± 1369 nmol/mg/h.
On the same count and under the same terms, under B4 stands 25544 ± 1758 nmol/mg/h; under B5, 19968 ± 2010 nmol/mg/h.
For the molecule B6, the “Baseline α-Gal A activity” value turned out to be 7746 ± 839 nmol/mg/h.
The same measure, in the same setting: under B7 stands 3103 ± 402 nmol/mg/h; under B8, 18465 ± 1552 nmol/mg/h; under B9, 23204 ± 1213 nmol/mg/h.
The same measure, in the same setting: under B10 stands 17041 ± 1389 nmol/mg/h; under B11, 8600 ± 733 nmol/mg/h; under B12, 24299 ± 2173 nmol/mg/h.
For B13, the “Baseline α-Gal A activity” value was 24068 ± 1533 nmol/mg/h.
On the same count and under the same terms, the result for B14 reads 7141 ± 423 nmol/mg/h; that for B15, 12542 ± 1642 nmol/mg/h.
On to B16, for which the “Baseline α-Gal A activity” value came out at 9035 ± 886 nmol/mg/h.
On the same count and under the same terms, the result for B17 reads 12244 ± 1167 nmol/mg/h.

The assay is the same for the next values; noted with them: lysates of HEK-293 cells transfected with the mutant form, incubated 5 days with 10 μM migalastat; mean ± SEM.
Take B1: the “10 μM migalastat α-Gal A activity” value turned out to be 32197 ± 2515 nmol/mg/h.
Still for that read-out and setting: the result for B2 reads 1159 ± 61 nmol/mg/h; that for B3, 35787 ± 2235 nmol/mg/h; that for B4, 32031 ± 1633 nmol/mg/h.
Same read-out and setting: under B5 stands 34977 ± 3072 nmol/mg/h; under B6, 21273 ± 1477 nmol/mg/h.
The same measure, in the same setting: under B7 stands 8765 ± 935 nmol/mg/h; under B8, 25569 ± 2083 nmol/mg/h.
Turning to B9, the “10 μM migalastat α-Gal A activity” value turned out to be 29510 ± 1181 nmol/mg/h.
With B10, the “10 μM migalastat α-Gal A activity” value worked out at 26198 ± 2461 nmol/mg/h.
For the molecule B11, the “10 μM migalastat α-Gal A activity” value is 18373 ± 795 nmol/mg/h.
As to B12, the “10 μM migalastat α-Gal A activity” value worked out at 34126 ± 2992 nmol/mg/h.
Same read-out and setting: the result for B13 reads 37342 ± 2569 nmol/mg/h; that for B14, 15887 ± 1308 nmol/mg/h.
As to B15, the “10 μM migalastat α-Gal A activity” value worked out at 27078 ± 2910 nmol/mg/h.
As to B16, the “10 μM migalastat α-Gal A activity” value was 28923 ± 1892 nmol/mg/h.
The same measure, in the same setting: under B17 stands 23849 ± 1725 nmol/mg/h.

For the origin of these results see US11833164B2, “Methods of treating Fabry disease in patients having a mutation in the GLA gene” (Amicus Therapeutics, Inc., priority 2019, dated 2023).
